This note sets out measurements from patent US20160185850A1 (ESBATECH AN ALCON BIOMEDICAL RESEARCH UNIT, published 2016).

Where a chain is given by its changes, count along the chain named. In names and notes the source's numbering stands.

Assay [1] deals with T1, recombinant human TNFα (human, UniProt P01375 77-233). Nature of the assay: cell-based or functional assay.
Assay [2] has as its target T1, recombinant human TNFα. The assay can be described thus: ELISA on recombinant human TNFα. In general terms: In an ELISA, binding on a coated surface is turned into a signal by an enzyme label.
For assay [3], the target named is T1, recombinant human TNFα. Nature of the assay: ELISA on recombinant human TNFα (FIG. 4A).

T1 sequence (P01375 77-233 limits assumed): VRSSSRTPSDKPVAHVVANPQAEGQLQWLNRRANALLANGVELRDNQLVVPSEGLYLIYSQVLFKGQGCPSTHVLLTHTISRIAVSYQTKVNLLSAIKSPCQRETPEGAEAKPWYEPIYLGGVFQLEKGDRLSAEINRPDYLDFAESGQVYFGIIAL

B1: TB-A H_F68L (scFv)
scFv: DIVMTQSPSSLSASVGDRVTLTCTASQSVSNDVVWYQQRPGKAPKLLIYSAFNRYTGVPSRFSGRGYGTDFTLTISSLQPEDVAVYYCQQDYNSPRTFGQGTKLEVKRGGGGSGGGGSGGGGSGGGGSQVQLVQSGAEVKKPGASVKVSCTASGYTFTHYGMNWVRQAPGKGLEWMGWINTYTGEPTYADKFKDRLTFSLETSASTVYMELTSLTSDDTAVYYCARERGDAMDYWGQGTLVTVSS
Take B1: in the assay with recombinant human TNFα [1], the “Relative potency: EC50X/EC50TB-A, KYM-1 cells” value (shortened to “Relative potency … KYM-1 cells”) is 1.5 ratio EC50X/EC50TB-A and the “Relative potency: EC50X/EC50TB-A, L929 cells” value (from here on “Relative potency … L929 cells”) was 1.32 ratio EC50X/EC50TB-A.

B2: TB-A H_F70L (scFv)
scFv: B1 scFv with L196F, F198L
For B2, the “Relative potency … L929 cells” value with recombinant human TNFα [1] was 2.7 ratio EC50X/EC50TB-A.

B3: TB-A Linker_G2R H_F68L (scFv)
scFv: B1 scFv with G110R
B3: in the assay with recombinant human TNFα [1], the “Relative potency … KYM-1 cells” value came out at 1.3 ratio EC50X/EC50TB-A and the “Relative potency … L929 cells” value was 0.8 ratio EC50X/EC50TB-A.

B4: TB-A H_F68A (scFv)
scFv: B1 scFv with L196A
With B4, in the assay with recombinant human TNFα [1], the “Relative potency … L929 cells” value turned out to be 1.14 ratio EC50X/EC50TB-A.

B5: TB-A H_M48L/F68I (scFv)
scFv: B1 scFv with M176L, L196I
On to B5, for which, in the assay with recombinant human TNFα [1], the “Relative potency … KYM-1 cells” value worked out at 1.6 ratio EC50X/EC50TB-A and the “Relative potency … L929 cells” value came out at 1.1 ratio EC50X/EC50TB-A.

B6: TB-A H_K43R/F68I (scFv)
scFv: B1 scFv with K171R, L196I
For the molecule B6, in the assay with recombinant human TNFα [1], the “Relative potency … KYM-1 cells” value amounted to 1.5 ratio EC50X/EC50TB-A and the “Relative potency … L929 cells” value was 1.37 ratio EC50X/EC50TB-A.

B7: TB-A H_F70L/L72R (scFv)
scFv: B1 scFv with L196F, F198L, L200R
notes: also called TB-A H70/72
As for B7, the binding result in the assay with recombinant human TNFα [2] is reported as “binds”.

B8: TB-A H_F68V/F70L (scFv)
scFv: B1 scFv with L196V, F198L
Consider B8, for which, in the assay with recombinant human TNFα [1], the “Relative potency … L929 cells” value worked out at 1.28 ratio EC50X/EC50TB-A.

B9: TB-B L46 (scFv)
scFv: DIVLTQSPSSLSASVGDRVTLTCTASQSVSNDVVWYQQRPGKAPKLLIYSAFNRYTGVPSRFSGSGSGTEFTLTISSLQPEDVAVYYCQQDYNSPRTFGQGTKLEVKRGGGGSGGGGSGGGGSGGGGSQVQLVQSGAEVKKPGASVKVSCTASGYSFTHYGMNWVRQAPGQGLEWMGWINTYTGEPTYADKFKDRVTLTRDTSIGTVYMELTSLTSDDTAVYYCARERGDAMDYWGQGTLVTVSS
notes: Differs from TB-B only at position 46 of VL (R to L); also called TB-B R46L
By Kd is commonly meant the equilibrium constant for the complex coming apart. As for B9, the Kd with recombinant human TNFα [3] was around 100 nM.
